Among the data in the supplement of paper PMC12042874 are amyloid nucleation score values, retold here.

± gives the uncertainty stated by the source.

The series in a line: amyloid nucleation score (Sup35N fusion, yeast selection) (log enrichment); library NNK2; higher = more nucleation; inactive = no reads after selection. The method, boiled down:
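Output and input plasmid inserts were sequenced by Illumina after psi-negative yeast carrying Sup35N fused to peptides of 20 random codons had been induced 24 hours with 100 μM copper sulfate and grown 7 days at 30°C on medium lacking adenine and uracil. The nucleation score is the DiMSum log enrichment of output over input reads, centred on the mode score of non-aggregating sequences. Sequences with under 100 input reads were excluded.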
AINWYYMHISMLECPAKNGS registered an amyloid nucleation score of -0.876 ± 0.76. The substance AIRCMEVKRTKSLLLVDSLS had an amyloid nucleation score of 0.154 ± 0.23. As for AIRLLDVLRCRG, the amyloid nucleation score was found to be 3.88 ± 0.087. With AISDGPET, the amyloid nucleation score was determined as 0.746 ± 0.43. AISHQPLWLLCHVVHLFRNS came in with an amyloid nucleation score of 0.279 ± 0.32. In the case of AKRDMAKKYLSGYHGVLWYV, the amyloid nucleation score came to 0.077 ± 0.63. For AKVCLYIAICLSLVNS, the amyloid nucleation score worked out at 2.98 ± 0.065. ALCKFRDFFVMYNTGWHTVQ yielded an amyloid nucleation score of -0.935 ± 1.1. ALENNIDPLGELASVPGCSG displayed an amyloid nucleation score of 0.843 ± 0.27. The substance ALFFRTKTKHWVSCRFLMS gave an amyloid nucleation score of 2.86 ± 0.078.

Turning to ALFYLSCQPSTGALESRYLG, the amyloid nucleation score is 1.73 ± 0.29. Regarding ALGVPLYMIEGIGKCLLSLK, the amyloid nucleation score worked out at 1.24 ± 0.43. Take ALLDHFPDEGHFKATFISSI: the amyloid nucleation score is 0.85 ± 0.58. ALLVILLDCLQFIYMTELNC returned an amyloid nucleation score of -0.032 ± 1.1. In turn, ALLWCQMWERDRSEFPIGGF gave an amyloid nucleation score of 1.2 ± 0.45. As to ALMTVASRKTLIPVGAKQMN, the amyloid nucleation score result was “inactive”. ALPKFSNNYLYEFLWFSRYL displayed an amyloid nucleation score of -0.538 ± 0.76. As to ALRDFS, the amyloid nucleation score stood at 0.465 ± 0.8.

Turning to ALRLLSFKVMVVEDYLTMTL, the amyloid nucleation score is 2.91 ± 0.098. ALRTPCYSAMHLGAWVFVCF came in with an amyloid nucleation score of 3.31 ± 0.14. In turn, ALVLRATVVVGIVKPGHAAD showed an amyloid nucleation score of 0.523 ± 0.32. On to ALVVLFTCGCSGMLVYNAWS, for which the amyloid nucleation score came to 0.841 ± 0.13. AMLLANALIWNRICGDRRLA gave an amyloid nucleation score of 0.823 ± 0.4. As for ANFGALHRAHESVECSLY, the amyloid nucleation score result is “inactive”. For ANVWRSLFAFTIANVTIPR, the amyloid nucleation score was 5.714 ± 0.045. Take APRGASALGCVYSDCSVVSI: the amyloid nucleation score worked out at 0.058 ± 1. In the case of APSGRHFFTFTPC it was 0.605 ± 0.36. Regarding AQAFLNGVGRLLVCTRTCRN, the amyloid nucleation score worked out at 0.895 ± 0.81. In the case of AQDWVARIRWSVRQFYGARC it was 2.18 ± 0.14; in that of AQVKKLDRARCRFQRVV, -1.4 ± 0.78; in that of ARLSWWGS, -0.184 ± 0.29. In the case of ARNTTGGSYV it was 0.504 ± 0.74. The value for ARPIKFYKKLYFSCMIELLR was -1.38 ± 0.54. As to ARSRFSYKMRYPACGVISSR, the amyloid nucleation score was -0.472 ± 0.79. Turning to ARYMSQVRRTSSHTLNEKI, the amyloid nucleation score is 0.545 ± 0.51.

The substance ASCNKGPEKSGQLFLLSAFL registered an amyloid nucleation score of -0.641 ± 0.49.

In turn, ASFFDTVNCSWFSGIFVMGF registered an amyloid nucleation score of 1.59 ± 0.21. For the substance ASGEDVNPSVCFHTTAMLYQ, the amyloid nucleation score is 0.98 ± 0.66. The value for ASGNRTFVVMLLNRRKMMST was 0.008 ± 0.48; that for ASLFFM was 0.707 ± 0.34; that for ASLIRGATKGQTVCEMALSG was -0.07 ± 0.27.

In turn, ASMVSVSVDEFGGFLPSCVS showed an amyloid nucleation score of -0.55 ± 0.46. Substance ASQRTVA yielded an amyloid nucleation score of 1.6 ± 0.36. Take ASRPWMMYPHESARRSR: the amyloid nucleation score came to 1.6 ± 0.22. With ASSRFDDVINDRIRILVCAV, the amyloid nucleation score was -0.102 ± 0.49. In turn, ASSTNVYLIIIGLWSAAM showed an amyloid nucleation score of 2.46 ± 0.18. Turning to ASSWGVNGRVNKISRTG, the amyloid nucleation score turned out to be 1.32 ± 0.18. In the case of ASTLPYYECEYR it was 0.343 ± 0.18; in that of ASVAGSV, 0.781 ± 0.27.

With ASWYRMWMWCEHTSSRLCVK, the amyloid nucleation score is 5.268 ± 0.037. In the case of ATHKVWFESGYAHTPLVYLF, the amyloid nucleation score is -0.588 ± 0.78.

On to ATKRGVHSQLCDCLRCMEFS, for which the amyloid nucleation score was determined as 0.386 ± 0.32.

Consider ATSMVSSTRVHVHFDHVRVE, for which the amyloid nucleation score was 6.54 ± 0.066. ATVIEYKYVRGMYLLMTYTY registered an amyloid nucleation score of -0.536 ± 1. As for AVASVETDGSKIYMMDVLNY, the amyloid nucleation score was -1.16 ± 1.1. In turn, AVFSRYCLIYVIMLDHDTDP yielded an amyloid nucleation score of 5.03 ± 0.099. The value for AVISGCFMRGLTTRIRTTLM was -0.073 ± 0.74. The value for AVLFRRVAFRHNWPW was 0.995 ± 0.68; that for AVNSNDTRDGRCGVIAI was 0.057 ± 0.31. Consider AVQVLYRGTFLLPFWRVANV, for which the amyloid nucleation score was -0.487 ± 1.1.

AVVTPKMIMMGWTEGGINVR had an amyloid nucleation score of -0.864 ± 0.76. AWEAPPYMCRDILRSWRGRL yielded an amyloid nucleation score of 0.757 ± 0.51. In the case of AWRKRH it was 0.746 ± 0.18; in that of AWRVRTLQGFYGSDAWQSHD, -0.237 ± 0.79; in that of AWYWN, -0.49 ± 0.33. The value for AYASPCMQDLGRCLGRPRML was 1.21 ± 0.31; that for AYGVSPI was -0.093 ± 0.35.

As to AYLPHAHTT, the amyloid nucleation score was -0.154 ± 0.33. In turn, AYLQGSLMEKICKISCPVDN gave an amyloid nucleation score of -0.387 ± 1.1. In the case of AYMKYHAIRLNARFCGS it was 3.53 ± 0.075; in that of AYMYTMGYRSHHVTEVVVIW, -0.047 ± 0.49; in that of AYRVWRRGVEMMRNPFLPVA, 3.6 ± 0.064. For the substance AYYYVLRFRCLFTFYPQLTA, the amyloid nucleation score was -0.428 ± 0.39. On to CAFVGKVSTARLVSSRNSFN, for which the amyloid nucleation score is 5.801 ± 0.045. In the case of CAKCVMCSNCPKNSGRILYR it was -1.12 ± 1.1. In turn, CATSISMLEHQ gave an amyloid nucleation score of 0.556 ± 0.2.

Turning to CCCGRMTSVHVDKPDLYLPL, the amyloid nucleation score was -0.047 ± 1.1. CCDRSAPAT returned an amyloid nucleation score of -0.12 ± 0.54.

On to CCFCFDNLIIPRDCYANSDN, for which the amyloid nucleation score turned out to be 6.734 ± 0.03. Regarding CCLYYHMIKAWDTTGVRLVN, the amyloid nucleation score is -1.4 ± 0.78. The substance CCNMTHYDFSGYNDGAMQDC came in with an amyloid nucleation score of -0.424 ± 0.76. CCWLAMRVRFTMASKLPNFE had an amyloid nucleation score of 3.34 ± 0.083. CCWRSNSRNTNVIPNLSLFR displayed an amyloid nucleation score of 3.94 ± 0.04.

Substance CDILPDLPGRFALVRKASHN yielded an amyloid nucleation score of 1.11 ± 0.45. The substance CDMPLKLWTLAVLPLDVPYR came in with an amyloid nucleation score of 0.179 ± 0.49.

With CDPFYTSLGCSSN, the amyloid nucleation score was found to be 2.85 ± 0.2. Consider CDPWQGYRWLP, for which the amyloid nucleation score was -0.665 ± 0.37. The substance CDRLSVNHFKEAGVQGSLSE yielded an amyloid nucleation score of 0.851 ± 0.21. Regarding CDVRSPSF, the amyloid nucleation score is -1.02 ± 0.3. The substance CDYYLFLCIYRSQNVGTEGG gave an amyloid nucleation score of 6.783 ± 0.063. Substance CECLRDESER came in with an amyloid nucleation score of 2.1 ± 0.29. Take CEEHDFMTSFICIAWAWKWL: the amyloid nucleation score was -0.66 ± 0.48. Consider CEISFVFIWILIVFNNVDPD, for which the amyloid nucleation score result was “inactive”.

Substance CELEGWSVGSRVNLLILIR yielded an amyloid nucleation score of -0.213 ± 1.1.

Consider CESPLSYWWRSRSLFSLCVE, for which the amyloid nucleation score is -0.359 ± 0.55. In turn, CEYYVHLRY registered an amyloid nucleation score of -0.702 ± 0.49.

Substance CFAIFWLFECTTSSMKMTRV had an amyloid nucleation score of 0.053 ± 1.1.

In turn, CFAYSSWDTPDMMAWVCRWD came in with an amyloid nucleation score of 0.154 ± 0.65. Regarding CFFSNQMADGYPQRWAVLRD, the amyloid nucleation score came out at 4.94 ± 0.054. The value for CFGYWHSVRARCLRKVGHRT was 0.546 ± 0.38; that for CFIFKCKKCHLYPMDSVICQ was “inactive”. Substance CFIFKWFYYCLSVSTIDMSV displayed an amyloid nucleation score of -2.48 ± 1.1. The substance CFIPLGVNFGDRTWLTVRIR came in with an amyloid nucleation score of 0.357 ± 0.41. For the substance CFMAVQI, the amyloid nucleation score entry is “inactive”.

As to CFQYTQTNVMRFSYGIGHRE, the amyloid nucleation score was determined as 2.12 ± 0.18.

CFSCLISWADMNSLLCYLEL had an amyloid nucleation score of -1.66 ± 0.48. With CGCHCVYSPYYCFLTYWCAN, the amyloid nucleation score is -0.542 ± 0.76. The value for CGFFVNEFTDLAWSYSLAVN was -0.117 ± 0.74; that for CGKCSVCG was 0.502 ± 0.27; that for CGLKDTTKLAVDVTPQNM was 0.908 ± 0.3. In turn, CGMFWLSRYEFYRISSCRRL returned an amyloid nucleation score of 1.3 ± 0.14. With CGQRCPKC, the amyloid nucleation score came out at 3.81 ± 0.063. CHNYELCCRLFNSFSTNQIA: the amyloid nucleation score is -0.468 ± 0.29. On to CHQCVNERFESKREPVPDHS, for which the amyloid nucleation score was determined as 0.421 ± 0.45. Regarding CHWSTGRYRDVMICVLWGIS, the amyloid nucleation score was -0.049 ± 0.34.

In the case of CHYRMVVKRYTFEHYAFYVG, the amyloid nucleation score was -0.782 ± 0.61. CIFCYANVFAYFTTKGLFVQ gave an amyloid nucleation score of -0.885 ± 0.38. Consider CIFILTD, for which the amyloid nucleation score is -1.67 ± 0.45. CIGIWDAIEVVENREL displayed an amyloid nucleation score of -0.545 ± 0.64. In turn, CIKVCALGCVDGVLVWERRW yielded an amyloid nucleation score of 0.538 ± 0.27.

CILGENYRIQSTDAHKGVSR came in with an amyloid nucleation score of -0.205 ± 0.19. The value for CILLPKVSCCCKGLICCDFV was 0.186 ± 0.34; that for CIRAECVKLYL was 6.11 ± 0.087; that for CISVVFVRHNGNFVSFNELV was 6.412 ± 0.05. For the substance CISWL, the amyloid nucleation score result is “inactive”.

Take CIYKS: the amyloid nucleation score is -1.36 ± 0.75. For CKKEVL, the amyloid nucleation score result is “inactive”.

Turning to CKSLLVKC, the amyloid nucleation score entry was “inactive”. Consider CKSSGGWNVEMWSVK, for which the amyloid nucleation score is -0.399 ± 0.41. For CKYFLLVFIVVNYFGLGPMP, the amyloid nucleation score result is “inactive”. CLAFLGLLKSFMITKGW gave an amyloid nucleation score of -1.49 ± 0.78. In the case of CLCCKLVYASNIEIGDYMGF it was 6.216 ± 0.034; in that of CLEHHNIWVILLVER, -0.207 ± 0.63. The substance CLFRLSSCVPTWLMQLTMWG had an amyloid nucleation score of 0.244 ± 0.25. In turn, CLFYRCCMHDPRSLLEKGRP gave an amyloid nucleation score of 5.835 ± 0.037. CLGGTLYLRCFIVDLLWSTG: the amyloid nucleation score is -0.219 ± 0.55.

As for CLLNVTEAFTGGSMIGWHFR, the amyloid nucleation score is 5.393 ± 0.049.

CLLYDQGFWQAGVLNVVAAR: the amyloid nucleation score is -0.085 ± 0.29.
